The values that follow come from US20260139049A1 (PEDIATRIC IMMUNITY AND HEALTHCARE GUANGZHOU BIOTECHNOLOGY, published 2026).

What is called EC50 is the concentration at which the effect is half-maximal. Low values mean an effect from little substance, high ones a need for much substance.

The labels stand for the following.
T1: human CLDN6 (human, UniProt P56747 1-220)
T1 construct: whole, on cells; four-transmembrane protein; also called claudin-6; HEK293T-CLDN6
T1 sequence (looked up): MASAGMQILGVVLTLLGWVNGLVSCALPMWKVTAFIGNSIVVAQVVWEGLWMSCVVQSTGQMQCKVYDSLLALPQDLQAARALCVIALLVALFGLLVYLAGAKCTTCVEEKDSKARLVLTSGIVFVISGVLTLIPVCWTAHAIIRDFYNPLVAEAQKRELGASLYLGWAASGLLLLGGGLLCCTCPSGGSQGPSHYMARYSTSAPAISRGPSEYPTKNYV

B1: PiH1003 (antibody, human IgG1, kappa, V domains shown)
VH: QVQLVQSGAEVKKPGASVKVSCKASGYTFTDYNMHWVRQAPGQGLEWIGYVNPNNGATSYNQKFKGRATMTVDTSTSTVYMELSSLRSEDTAVYNCARWDGYVYYYGLDYWGQGTLVTVSS
VL: DIQMTQSPSSLSASVGDRVTITCKASDHINNWLAWYQQKPGKVPKLLISGATSLETGVPSRFSGSGSGTDYTLTISSLQPEDVATYYCQQYWSTPYTFGGGTKLEIKR
notes: humanized from 51C10H4; IgG1; also called 51-VH3 + VL3
B2: PiH1005 (antibody, human IgG1, kappa, V domains shown)
VH: B1 VH with V72R, N95Y
VL: B1 VL with D17G, K45R
notes: humanized from 51C10H4; IgG1; also called 51-VH1 + VL4
B3: PiH1002 (antibody, human IgG1, kappa, V domains shown)
VH: B1 VH with A68V
VL: B1 VL
notes: humanized from 51C10H4; IgG1; also called 51-VH2 + VL3
B4: PiH1001 (antibody, human IgG1, kappa, V domains shown)
VH: B1 VH with V72R, N95Y
VL: B1 VL
notes: humanized from 51C10H4; IgG1; also called 51-VH1 + VL3
B5: PiH1006 (antibody, human IgG1, kappa, V domains shown)
VH: B1 VH with A68V
VL: B1 VL with D17G, K45R
notes: humanized from 51C10H4; IgG1; also called 51-VH2 + VL4
B6: PiH1008 (antibody, human IgG1, kappa, V domains shown)
VH: B1 VH with G44S, T74K
VL: B1 VL with D17G, K45R
notes: humanized from 51C10H4; IgG1; also called 51-VH4 + VL4
B7: PiH1007 (antibody, human IgG1, kappa, V domains shown)
VH: B1 VH
VL: B1 VL with D17G, K45R
notes: humanized from 51C10H4; IgG1; also called 51-VH3 + VL4
B8: PiH1004-VH-Mutation8-VL (antibody, human IgG1, kappa, V domains shown)
VH: B1 VH with G44S, V51L, T74K
VL: B1 VL
notes: improved antibody from PiH1004
B9: PiH1004-VH-VL-Mutation2 (antibody, human IgG1, kappa, V domains shown)
VH: B1 VH with G44S, T74K
VL: B1 VL with I29V
notes: as for B8
B10: PiH1004-VH-VL-Mutation6 (antibody, human IgG1, kappa, V domains shown)
VH: B1 VH with G44S, T74K
VL: B1 VL with W92G
notes: as for B8
B11: PiH1004-VH-VL-Mutation7 (antibody, human IgG1, kappa, V domains shown)
VH: B1 VH with G44S, T74K
VL: B1 VL with S93H
notes: as for B8
B12: PiH1004-VH-VL-Mutation3 (antibody, human IgG1, kappa, V domains shown)
VH: B1 VH with G44S, T74K
VL: B1 VL with N31Q
notes: as for B8
B13: PiH1004-VH-VL-Mutation4 (antibody, human IgG1, kappa, V domains shown)
VH: B1 VH with G44S, T74K
VL: B1 VL with A51G
notes: as for B8
B14: PiH1004-VH-Mutation11-VL (antibody, human IgG1, kappa, V domains shown)
VH: B1 VH with G44S, T74K, Y110F
VL: B1 VL
notes: as for B8
B15: PiH2009 (antibody, human IgG1, kappa, V domains shown)
VH: QVQLVQSGAEVKKPGASVKVSCKASGYTFTDYNMHWVRQATGQGLEWIGYINPNNGATNYNQKFKGRATMTRNKSISTAYMELRSLRSEDTAVYYCARWDGYVYYYGMDYWGQGTLVTVSS
VL: B1 VL with K45R, T69K, S93N
notes: humanized from 54B5A7; IgG1; also called 54-VH5 + VL5
B16: PiH2012 (antibody, human IgG1, kappa, V domains shown)
VH: B15 VH with Q39K, G44S, Y95N
VL: B1 VL with K45R, T69K, S93N
notes: humanized from 54B5A7; IgG1; also called 54-VH8 + VL5
B17: PiH2011 (antibody, human IgG1, kappa, V domains shown)
VH: B15 VH with M70L, R72V
VL: B1 VL with K45R, T69K, S93N
notes: humanized from 54B5A7; IgG1; also called 54-VH7 + VL5
B18: PiH2010 (antibody, human IgG1, kappa, V domains shown)
VH: B15 VH with Y95N
VL: B1 VL with K45R, T69K, S93N
notes: humanized from 54B5A7; IgG1; also called 54-VH6 + VL5

Where a chain is given by its changes, count along the chain named.

The first assay deals with T1, human CLDN6. In words: FACS on HEK293T-CLDN6 cells. Here is the method:
To detect a binding capacity of a chimeric or humanized antibody to CLDN6, a CLDN6-expressing cell line HEK293T-CLDN6 and a CLDN6-negative control cell line HEK293T were washed three times with PBS. 1×10⁵ test cells and 50 μL of an antibody solution to be tested were added to a 96-well plate, and incubated at 4° C. for 1 h. The cells were then washed three times with PBS. […] Finally, cells were washed three times with PBS, and signals were read using FACS.
An EC50 value (a concentration of an antibody that binds to half of binding sites at equilibrium) is calculated through nonlinear regression.
In turn, B1 displayed an EC50 of 0.455 µg/mL.
The same measure, in the same setting: the value for B2 was 0.372 µg/mL.
On the same count and under the same terms, next, B3: 0.635 µg/mL; B4: 0.488 µg/mL.
Regarding B5, the EC50 amounted to 0.536 µg/mL.
On the same count and under the same terms, the value for B6 was 0.447 µg/mL.
Same read-out and setting: the value for B7 was 0.374 µg/mL.

The target in another assay is T1, human CLDN6. In words: FACS on CHO-K1-CLDN6 cells, against PiH1004 (FIG. 40).
Regarding B8, the binding result is reported as “binds”.
Still for that read-out and setting: next, B9: “binds”; B10: “binds”.
Still for that read-out and setting: next, B11: “binds”; B12: “binds”; B13: “binds”.
On the same count and under the same terms, the value for B14 was “binds”.

For another assay, the target named is T1, human CLDN6. In words: FACS on PA-1 tumour cells; target on the cells taken as CLDN6. Here is the method:
(§1) 50 μL of an antibody to be tested was added to a 96-well plate, then 1×10⁵ cells were added to each well, and incubation was conducted at 4° C. for 1 h. Cells were washed three times with PBS. […] Finally, cells were washed three times with PBS, and signals were read using FACS. A binding capacity of the antibody to each tumor cell was analyzed based on detection data.
As for B1, the EC50 came to 0.883 µg/mL.
The same measure, in the same setting: next, B2: 0.505 µg/mL; B3: 0.754 µg/mL; B4: 0.631 µg/mL.
In turn, B5 returned an EC50 of 0.75 µg/mL. This EC50 and that of the molecule before are within 1.5-fold of each other.
Same read-out and setting: the value for B6 was 0.455 µg/mL; that for B7 was 0.697 µg/mL.

The target in the next assay is T1, human CLDN6. In words: FACS on HepG2 tumour cells; target on the cells taken as CLDN6. The procedure: as §1
As for B2, the response was half-maximal at 2.35 µg/mL (EC50).
B4 registered an EC50 of 1.76 µg/mL.
Molecule B5 returned an EC50 of 1.5 µg/mL.
Molecule B6 registered a half-maximal effective concentration (EC50) of 0.886 µg/mL. Compared with the last molecule, the EC50 is about 1.7-fold lower.
Same read-out and setting: the value for B7 was 2.48 µg/mL.

Another assay deals with T1, human CLDN6. The description is as above. The source holds these as a separate data set. Here is the method:
as §1
Molecule B15 returned an EC50 of 1.11 µg/mL.
On the same count and under the same terms, the value for B16 was 0.444 µg/mL.
As for B17, the EC50 was found to be 4.7 µg/mL.
Molecule B18 came in with an EC50 of 1.4 µg/mL.
